Laboratory results taken from the RNAGym collection of RNA variant scans (doi:10.1093/molbev/msab373).

B1: Azoarcus group I ribozyme (parent)
chain: GUGCCUUGCGCCGGGAAACCACGCAAGGGAUGGUGUCAAAUUCGGCGAAACCUAAGCGCCCGCCCGGGCGUAUGGCAACGCCGAGCCAAGCUUCGGCGCCUGCGCCGAUGAAGGUGUAGAGACUAGACGGCACCCACCUAAGGCAAACGCUAUGGUGAAGGCAUAGUCCAGGGAGUGGCGAAAGUCACACAAACCGG

Variants of: B1
Assay: reverse-splicing fitness (ratio to wild type); higher = more active; in vitro selection; Mg2+ level not given
How it was run: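 An in vitro group I ribozyme library with randomized positions was T7-transcribed and gel-purified. In triplicate, 10 pmol RNA in EPPS pH 7.5 was reacted with 50 pmoles of a 30-nt RNA substrate for 1 h at 37 °C across several added MgCl2 levels (1–48 mM), then stopped with EDTA. Products were reverse transcribed from a substrate-complementary primer, PCR-amplified and sequenced (HiSeq 4000). Fitness is a variant's read proportion after selection over that before, normalised to wild type.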

Row | Variant | reverse-splicing fitness
1 | GUGCCUUGCGCCGGGAAACCACGCAAGGGAUGGUGUCAAAUUCGGCGAAACCUAAGCGCCCGCCCGGGCGUAUGGCAACGCAGAGCCAAGCUUCGGCGCCUGCGCCGAUGUAGGUGUAGCGACUAGACGGCACCCACCUAAGGCAAACGAUAUGGUGAAGGCAUAGUCAAGGGAGUGGCGAAAGUCACACAAACCGG [C82A A111U A120C C150A C169A] | 0.0122
2 | GUGCCUUGCGCCGGGAAACCACGCAAGGGAUGGUGUCAAAUUCGGCGAAACCUAAGCGCCCGCCCGGGCGUAUGGCAACGCAGAGCCAAGCUUCGGCGCCUGCGCCGAUGUAGGUGUAGCGACUAGACGGCACCCACCUAAGGCUAACGCUAUGGUGAAGGCAUAGUCUAGGGAGAGGCGAAAGUCACACAAACCGG [C82A A111U A120C A145U C169U U176A] | 0.0151
3 | GUGCCUUGCGCCGGGAAACCACGCAAGGGAUGGUGUCAAAUUCGGCGAAACCUAAGCGCCCGCCCGGGCGUAUGGCAACGCAGAGCCAAGCUUCGGCGCCUGCGCCGAUGUAGGUGUAGCGACUAGACGGCACCCACCUAAGGCUAACGCUAUGGUGAAGGCAUAGUCUAGGGAGGGGCGAAAGUCACACAAACCGG [C82A A111U A120C A145U C169U U176G] | 0.00555
4 | GUGCCUUGCGCCGGGAAACCACGCAAGGGAUGGUGUCAAAUUCGGCGAAACCUAAGCGCCCGCCCGGGCGUAUGGCAACGCAGAGCCAAGCUUCGGCGCCUGCGCCGAUGUAGGUGUAGCGACUAGACGGCACCCACCUAAGGCUAACGCUAUGGUGAAGGCAUAGUCUAGGGAGCGGCGAAAGUCACACAAACCGG [C82A A111U A120C A145U C169U U176C] | 0.0156
5 | GUGCCUUGCGCCGGGAAACCACGCAAGGGAUGGUGUCAAAUUCGGCGAAACCUAAGCGCCCGCCCGGGCGUAUGGCAACGCAGAGCCAAGCUUCGGCGCCUGCGCCGAUGUAGGUGUAGCGACUAGACGGCACCCACCUAAGGCUAACGUUAUGGUGAAGGCAUAGUCUAGGGAGGGGCGAAAGUCACACAAACCGG [C82A A111U A120C A145U C150U C169U U176G] | 0.00816
6 | GUGCCUUGCGCCGGGAAACCACGCAAGGGAUGGUGUCAAAUUCGGCGAAACCUAAGCGCCCGCCCGGGCGUAUGGCAACGCAGAGCCAAGCUUCGGCGCCUGCGCCGAUGUAGGUGUAGCGACUAGACGGCACCCACCUAAGGCUAACGUUAUGGUGAAGGCAUAGUCUAGGGAGCGGCGAAAGUCACACAAACCGG [C82A A111U A120C A145U C150U C169U U176C] | 0.0137
7 | GUGCCUUGCGCCGGGAAACCACGCAAGGGAUGGUGUCAAAUUCGGCGAAACCUAAGCGCCCGCCCGGGCGUAUGGCAACGCAGAGCCAAGCUUCGGCGCCUGCGCCGAUGUAGGUGUAGCGACUAGACGGCACCCACCUAAGGCUAACGUUAUGGUGAAGGCAUAGUCUAGGGAGAGGCGAAAGUCACACAAACCGG [C82A A111U A120C A145U C150U C169U U176A] | 0.0157
8 | GUGCCUUGCGCCGGGAAACCACGCAAGGGAUGGUGUCAAAUUCGGCGAAACCUAAGCGCCCGCCCGGGCGUAUGGCAACGCAGAGCCAAGCUUCGGCGCCUGCGCCGAUGUAGGUGUAGCGACUAGACGGCACCCACCUAAGGCAAACGAUAUGGUGAAGGCAUAGUCAAGGGAGAGGCGAAAGUCACACAAACCGG [C82A A111U A120C C150A C169A U176A] | 0.0227
9 | GUGCCUUGCGCCGGGAAACCACGCAAGGGAUGGUGUCAAAUUCGGCGAAACCUAAGCGCCCGCCCGGGCGUAUGGCAACGCAGAGCCAAGCUUCGGCGCCUGCGCCGAUGUAGGUGUAGCGACUAGACGGCACCCACCUAAGGCUAACGCUAUGGUGAAGGCAUAGUCGAGGGAGUGGCGAAAGUCACACAAACCGG [C82A A111U A120C A145U C169G] | 0.0114
10 | GUGCCUUGCGCCGGGAAACCACGCAAGGGAUGGUGUCAAAUUCGGCGAAACCUAAGCGCCCGCCCGGGCGUAUGGCAACGCAGAGCCAAGCUUCGGCGCCUGCGCCGAUGUAGGUGUAGCGACUAGACGGCACCCACCUAAGGCUAACGCUAUGGUGAAGGCAUAGUCAAGGGAGUGGCGAAAGUCACACAAACCGG [C82A A111U A120C A145U C169A] | 0.00981
11 | GUGCCUUGCGCCGGGAAACCACGCAAGGGAUGGUGUCAAAUUCGGCGAAACCUAAGCGCCCGCCCGGGCGUAUGGCAACGCAGAGCCAAGCUUCGGCGCCUGCGCCGAUGUAGGUGUAGCGACUAGACGGCACCCACCUAAGGCUAACGCUAUGGUGAAGGCAUAGUCUAGGGAGUGGCGAAAGUCACACAAACCGG [C82A A111U A120C A145U C169U] | 0.0129
12 | GUGCCUUGCGCCGGGAAACCACGCAAGGGAUGGUGUCAAAUUCGGCGAAACCUAAGCGCCCGCCCGGGCGUAUGGCAACGCAGAGCCAAGCUUCGGCGCCUGCGCCGAUGUAGGUGUAGCGACUAGACGGCACCCACCUAAGGCAAACGAUAUGGUGAAGGCAUAGUCCAGGGAGUGGCGAAAGUCACACAAACCGG [C82A A111U A120C C150A] | 0.0118
13 | GUGCCUUGCGCCGGGAAACCACGCAAGGGAUGGUGUCAAAUUCGGCGAAACCUAAGCGCCCGCCCGGGCGUAUGGCAACGCAGAGCCAAGCUUCGGCGCCUGCGCCGAUGUAGGUGUAGCGACUAGACGGCACCCACCUAAGGCUAACGUUAUGGUGAAGGCAUAGUCGAGGGAGCGGCGAAAGUCACACAAACCGG [C82A A111U A120C A145U C150U C169G U176C] | 0.0244
14 | GUGCCUUGCGCCGGGAAACCACGCAAGGGAUGGUGUCAAAUUCGGCGAAACCUAAGCGCCCGCCCGGGCGUAUGGCAACGCAGAGCCAAGCUUCGGCGCCUGCGCCGAUGUAGGUGUAGCGACUAGACGGCACCCACCUAAGGCUAACGUUAUGGUGAAGGCAUAGUCGAGGGAGGGGCGAAAGUCACACAAACCGG [C82A A111U A120C A145U C150U C169G U176G] | 0.00736
15 | GUGCCUUGCGCCGGGAAACCACGCAAGGGAUGGUGUCAAAUUCGGCGAAACCUAAGCGCCCGCCCGGGCGUAUGGCAACGCAGAGCCAAGCUUCGGCGCCUGCGCCGAUGUAGGUGUAGCGACUAGACGGCACCCACCUAAGGCUAACGUUAUGGUGAAGGCAUAGUCGAGGGAGAGGCGAAAGUCACACAAACCGG [C82A A111U A120C A145U C150U C169G U176A] | 0.016
